Key:
[1] = target: control human IgG (human); assay: ELISA, periplasmic extract on control IgG
[2] = target: T1, native membrane bound porcine CD163 on primary porcine alveolar macrophages (porcine, UniProt Q2VL90 47-1115); assay: flow cytometry, PAM CD163-WT, 4C
T1 construct: also called PAM CD163-WT; pPAM
T1 sequence: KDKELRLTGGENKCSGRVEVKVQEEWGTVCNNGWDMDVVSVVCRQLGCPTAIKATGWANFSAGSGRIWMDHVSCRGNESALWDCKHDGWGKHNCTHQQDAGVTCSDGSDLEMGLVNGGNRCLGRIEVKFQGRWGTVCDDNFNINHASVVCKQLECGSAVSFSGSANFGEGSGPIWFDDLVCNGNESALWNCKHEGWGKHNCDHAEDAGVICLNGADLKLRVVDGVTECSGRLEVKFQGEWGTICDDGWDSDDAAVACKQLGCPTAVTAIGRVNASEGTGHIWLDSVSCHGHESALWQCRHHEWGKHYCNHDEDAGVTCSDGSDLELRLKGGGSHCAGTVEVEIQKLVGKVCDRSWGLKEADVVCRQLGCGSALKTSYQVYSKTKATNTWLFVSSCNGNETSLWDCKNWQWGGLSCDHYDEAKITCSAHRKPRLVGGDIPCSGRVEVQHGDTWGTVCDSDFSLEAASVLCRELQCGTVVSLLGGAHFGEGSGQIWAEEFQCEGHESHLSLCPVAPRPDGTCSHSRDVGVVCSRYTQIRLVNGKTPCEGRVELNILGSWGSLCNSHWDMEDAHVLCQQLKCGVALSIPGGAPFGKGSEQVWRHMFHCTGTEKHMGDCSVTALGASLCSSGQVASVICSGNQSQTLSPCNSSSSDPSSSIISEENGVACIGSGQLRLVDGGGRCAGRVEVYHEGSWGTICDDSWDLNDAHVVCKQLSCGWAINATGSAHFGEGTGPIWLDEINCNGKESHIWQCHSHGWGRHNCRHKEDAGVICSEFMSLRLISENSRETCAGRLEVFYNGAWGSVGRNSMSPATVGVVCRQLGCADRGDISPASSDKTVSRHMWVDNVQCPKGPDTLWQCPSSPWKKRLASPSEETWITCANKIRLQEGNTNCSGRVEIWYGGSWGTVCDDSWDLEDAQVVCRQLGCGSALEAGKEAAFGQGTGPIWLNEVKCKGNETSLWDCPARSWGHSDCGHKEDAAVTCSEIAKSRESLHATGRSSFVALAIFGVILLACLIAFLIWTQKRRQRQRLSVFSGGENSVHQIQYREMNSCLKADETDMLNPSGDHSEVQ
Method: Periplasmic Extract (P.E) from the selected clones were incubated with anti-c-myc antibody (Roche; Cat. nr. 11667203001), specific to the c-myc tag present in the soluble VHH, for 30 minutes with agitation at room temperature (RT). The mix (P.E + anti-c-myc antibody) was added to the pPAM or pPAMΔ5 domain (cells with deletion of SRCR domain 5) and incubated for 60 min at 4° C. with gentle shaking.
Cells were washed 3x with 150 µl/well of FACS Buffer and incubated with 50 µl/well of the secondary antibody GAM-APC for 30 min at 4° C. and protected from the light, with shaking.

[3] = target: T1, native membrane bound porcine CD163 on …; assay: flow cytometry, PAM CD163-WT, RT
pCD163-SRCR4-7-huFc = target: T2, pCD163-SRCR4-7-huFc (porcine, UniProt Q2VL90 372-818, limits assumed); assay: ELISA, periplasmic extract on coated antigen
T2 construct: also called pCD163:SRCR4-7-Fc; pCD163-SRCR4-7-Fc; not shown: human Fc (huFc)

pCD163-SRCR1-9-huFc = target: T3, pCD163-SRCR1-9-huFc (porcine, UniProt Q2VL90 47-1028, limits assumed); assay: ELISA, periplasmic extract on coated antigen
T3 construct: also called pCD163:SRCR1-9-Fc; pCD163SRCR1-9-Fc; not shown: human Fc (huFc)
T3 sequence: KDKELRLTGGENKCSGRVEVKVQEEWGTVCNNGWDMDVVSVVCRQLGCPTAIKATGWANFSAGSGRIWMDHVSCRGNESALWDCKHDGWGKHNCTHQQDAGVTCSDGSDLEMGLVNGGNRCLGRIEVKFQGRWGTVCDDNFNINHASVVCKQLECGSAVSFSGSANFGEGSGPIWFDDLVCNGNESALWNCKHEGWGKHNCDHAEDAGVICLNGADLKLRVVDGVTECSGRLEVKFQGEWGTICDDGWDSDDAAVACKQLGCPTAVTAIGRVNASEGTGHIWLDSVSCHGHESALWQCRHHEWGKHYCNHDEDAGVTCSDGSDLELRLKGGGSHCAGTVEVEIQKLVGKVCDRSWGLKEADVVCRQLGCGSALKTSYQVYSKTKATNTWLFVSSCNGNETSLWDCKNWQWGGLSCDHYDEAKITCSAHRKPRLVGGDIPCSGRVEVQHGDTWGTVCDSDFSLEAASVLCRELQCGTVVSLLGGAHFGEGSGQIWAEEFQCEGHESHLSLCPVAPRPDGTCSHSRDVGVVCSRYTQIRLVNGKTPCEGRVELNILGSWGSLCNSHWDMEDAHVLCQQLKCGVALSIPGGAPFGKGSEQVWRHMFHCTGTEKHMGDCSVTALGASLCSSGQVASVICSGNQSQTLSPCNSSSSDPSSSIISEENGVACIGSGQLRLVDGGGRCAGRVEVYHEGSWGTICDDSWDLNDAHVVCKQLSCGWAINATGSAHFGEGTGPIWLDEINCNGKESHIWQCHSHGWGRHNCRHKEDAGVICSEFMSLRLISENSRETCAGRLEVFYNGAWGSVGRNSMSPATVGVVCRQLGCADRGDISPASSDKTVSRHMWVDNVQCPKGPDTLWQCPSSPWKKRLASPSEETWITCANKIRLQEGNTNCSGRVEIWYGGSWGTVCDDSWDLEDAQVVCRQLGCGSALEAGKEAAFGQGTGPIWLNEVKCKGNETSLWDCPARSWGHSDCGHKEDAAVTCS

| Binder | O.D. 450 [1] [O.D. 450] | % Binding [2] [%] | MFI [2] [MFI] | % Binding [3] [%] | MFI [3] [MFI] | O.D. 450 (pCD163-SRCR4-7-huFc) [O.D. 450] | O.D. 450 (pCD163-SRCR1-9-huFc) [O.D. 450] |
| --- | --- | --- | --- | --- | --- | --- | --- |
| VHH 017 (3D03) (VHH, Llama single domain antibody; also called 29(#17); VHCDR3 29(#17); not shown: tags: c-myc tag in periplasmic extract (ELISA, FACS); FLAG and His tags in purified VHH (SPR, infection assays)) VHH: QLQLVESGGGLVQPGGSLRLSCAASGFTLDDYTIGWFRQAPGKEREGVSCINSITSNTYYADSVKGRFTISRDNAKNTVYLQMNSLTAEDTAIYYCAADSGLFSGSSCLKYRAMRFGSWGQGTQVTVSS | 0.053 | 95.3 | 13500 | 37.2 | 2290 | 0.116 | 0.137 |
| VHH 012 (2C07) (VHH, Llama single domain antibody; also called 41(#12); VHCDR3 41(#12); not shown: tags: c-myc tag in periplasmic extract (ELISA, FACS); FLAG and His tags in purified VHH (SPR, infection assays)) VHH: QLQLVESGGGLVQAGGSLRLSCVASGRTFSRYAMGWFRQAPGKEREFVAAIAWSTGSTYYANSVKGRFAISGDNAKNTVYLQMNSLKPEDTAVYYCAAETRYCSGFGCLDPRTYGSWGQGTQVTVSS | 0.057 | 97.9 | 26500 | 91.5 | 17700 | 3.14 | 0.535 |
| VHH 002 (1B04) (VHH, Llama single domain antibody; also called 76(#2); VHCDR3 76(#2); not shown: tags: c-myc tag in periplasmic extract (ELISA, FACS); FLAG and His tags in purified VHH (SPR, infection assays)) VHH: QVQLVESGGGLVQAGGSLRLSCAASGLTFVTYSMGWFRQAPGKEREFVAAHRWSGSAYYAEHADSVEGRFTISRDYAKNMLYLQMNSLKHEDTAVYYCAAGVGSAAQYRYWGRGTQVTVSS | 0.057 | 31.8 | 1980 | 1.02 | 900 | 2.39 | 0.235 |
| VHH 016 (2H11) (VHH, Llama single domain antibody; also called 77(#16); VHCDR3 77(#16); not shown: tags: c-myc tag in periplasmic extract (ELISA, FACS); FLAG and His tags in purified VHH (SPR, infection assays)) VHH: EVQLVESGGGLVQAGGSLRLSCAASGRTFAPGSMGWFRQAPGKEREFVAAHRWSGSAYYADYADSVEGRFTISRDYAKNMVYLQMNSLKPGDTAVYYCAAGVGSAAQYTYWGRGTQVTVSS | 0.06 | 61 | 3210 | 1.59 | 927 | 4.15 | 0.263 |
| VHH 008 (1H01) (VHH, Llama single domain antibody; also called 78(#8); VHCDR3 78(#8); not shown: tags: c-myc tag in periplasmic extract (ELISA, FACS); FLAG and His tags in purified VHH (SPR, infection assays)) VHH: QVQLVESGGGLVQAGGSLRLSCAASGRTFGTYSMGWFRQAPGKEREFVAAHRWSGSAYYAEHADSVEGRFTISRDYAKNMLYLQMNSLKHEDTAVYYCAAGVGSEAQYRYWGRGTQVTVSS | 0.06 | 38.8 | 2370 | 0.87 | 963 | 2.65 | 0.22 |
| VHH 023 (4E10) (VHH, Llama single domain antibody; also called 70(#23); VHCDR3 70(#23); not shown: tags: c-myc tag in periplasmic extract (ELISA, FACS); FLAG and His tags in purified VHH (SPR, infection assays)) VHH: QVQLVESGGGLVQAGGSLRLSCVASSRTSSTYAMGWFRQGPGKERDFVAIISFGGTFYADSVKGRFTISRDNAKNTVYLQMNSLKPEDTAVYYCAAGRTLSKRADSYASWGQGTQVTVSS | 0.054 | 8.75 | 1390 | 0.56 | 843 | 4.1 | 0.577 |

— patent US20230203185A1 (ECO ANIMAL HEALTH, published 2023)
